Several values for one entry are separate records, joined by “and”; a condition that tells them apart may be missing. Equal values may be shown once.
What was measured:
[1] = molecular target: L. farciminis oxalate decarboxylase (OxDC), as used for size-exclusion chromatography (L. farciminis); assay: SEC
[2] = molecular target: truncated protein consisting of the main body of L. farciminis OxDC (aa 22-373) (L. farciminis); assay: crystal structure

Substance	stoichiometry N [1]	stoichiometry N [2]
L. farciminis oxalate decarboxylase (OxDC), as used for size-exclusion chromatography (enzyme)	2 and 6	
truncated protein consisting of the main body of L. farciminis OxDC (aa 22-373) (domain or fragment)		6
